Here are results for 7 molecules from paper PMC10104585, “Yeast PIC-Mediator structure with RNA polymerase II C-terminal domain” (Proceedings of the National Academy of Sciences of the …, 2023).

In this test the target is T1, Rpb1 (RNA polymerase II subunit carrying the C-terminal repeat domain) (S. cerevisiae, UniProt P04050 1-1733).
T1 construct: Rpb1, subunit of RNA polymerase II, S. cerevisiae, with its C-terminal repeat domain (CTD) of 26 heptapeptide repeats of consensus YSPTSPS; Stood in the assay as a subunit of Pol II within the PIC; CTD peptides 1, 2 and 3 are stretches of its CTD seen in the map (6, 3 and 2 repeats); their register within the CTD could not be assigned; also called Rpb1 CTD; Pol II CTD
T1 sequence (P04050 whole entry, the tested form may be a part): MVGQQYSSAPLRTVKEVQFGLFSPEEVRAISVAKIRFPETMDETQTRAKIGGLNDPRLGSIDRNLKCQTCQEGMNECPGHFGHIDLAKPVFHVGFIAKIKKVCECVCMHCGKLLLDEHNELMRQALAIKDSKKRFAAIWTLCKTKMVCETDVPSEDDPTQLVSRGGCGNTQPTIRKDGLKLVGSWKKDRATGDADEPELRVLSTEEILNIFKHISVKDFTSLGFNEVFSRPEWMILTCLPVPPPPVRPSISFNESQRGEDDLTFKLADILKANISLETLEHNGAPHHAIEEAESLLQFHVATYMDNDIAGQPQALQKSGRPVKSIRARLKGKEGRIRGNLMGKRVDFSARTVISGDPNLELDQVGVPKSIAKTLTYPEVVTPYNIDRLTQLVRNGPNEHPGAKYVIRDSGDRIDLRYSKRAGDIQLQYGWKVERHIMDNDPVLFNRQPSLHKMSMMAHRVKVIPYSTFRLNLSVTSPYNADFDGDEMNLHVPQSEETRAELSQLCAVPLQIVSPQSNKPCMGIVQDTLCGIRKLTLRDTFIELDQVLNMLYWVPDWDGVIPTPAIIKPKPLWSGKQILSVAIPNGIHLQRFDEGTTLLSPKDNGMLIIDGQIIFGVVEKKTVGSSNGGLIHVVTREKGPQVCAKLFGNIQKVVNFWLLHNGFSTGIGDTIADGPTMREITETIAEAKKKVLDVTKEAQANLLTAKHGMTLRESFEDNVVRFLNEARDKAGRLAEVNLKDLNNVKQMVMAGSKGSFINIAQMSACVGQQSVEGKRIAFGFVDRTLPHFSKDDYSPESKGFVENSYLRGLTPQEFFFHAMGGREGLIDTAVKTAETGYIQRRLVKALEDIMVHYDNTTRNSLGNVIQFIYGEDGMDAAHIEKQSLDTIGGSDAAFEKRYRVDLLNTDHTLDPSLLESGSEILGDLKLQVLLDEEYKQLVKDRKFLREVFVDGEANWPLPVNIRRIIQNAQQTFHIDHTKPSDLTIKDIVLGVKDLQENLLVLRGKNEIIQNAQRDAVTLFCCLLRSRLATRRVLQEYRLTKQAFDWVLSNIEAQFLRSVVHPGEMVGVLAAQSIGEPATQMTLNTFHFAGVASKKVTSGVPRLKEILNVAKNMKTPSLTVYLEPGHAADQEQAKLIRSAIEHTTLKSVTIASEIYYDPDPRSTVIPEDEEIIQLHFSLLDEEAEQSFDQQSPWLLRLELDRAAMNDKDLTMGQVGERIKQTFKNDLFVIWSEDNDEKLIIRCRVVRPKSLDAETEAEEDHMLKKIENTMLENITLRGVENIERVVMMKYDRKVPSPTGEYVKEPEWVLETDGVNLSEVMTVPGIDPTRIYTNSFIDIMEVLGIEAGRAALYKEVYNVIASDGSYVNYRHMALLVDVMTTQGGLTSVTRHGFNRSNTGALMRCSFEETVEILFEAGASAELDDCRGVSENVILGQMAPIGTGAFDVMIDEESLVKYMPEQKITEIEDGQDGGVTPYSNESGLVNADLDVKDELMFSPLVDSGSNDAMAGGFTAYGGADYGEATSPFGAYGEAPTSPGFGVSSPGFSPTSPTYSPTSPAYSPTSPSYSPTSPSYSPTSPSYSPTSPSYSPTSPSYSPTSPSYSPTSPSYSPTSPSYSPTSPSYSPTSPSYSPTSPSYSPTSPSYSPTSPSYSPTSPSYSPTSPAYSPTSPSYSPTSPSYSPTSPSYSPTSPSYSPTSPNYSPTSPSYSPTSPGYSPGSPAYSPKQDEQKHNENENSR
As to the kind of experiment: cryo-EM structure; PIC-cMed-nucleosome complex assembled from the prepared factors on a His4 promoter / Widom-601 nucleosome template; GraFix sucrose gradient with glutaraldehyde cross-linking; 100 mM KCl, 25 mM K-HEPES pH 7.5, 2 mM MgCl2, 1 mM TCEP; reconstructions at 3.0 Å (PIC-cMed) and 3.6 Å (PIC-cMed-nucleosome), focused maps to 2.9-3.3 Å. The conditions noted are these: both partners purified.

B1: Med6 (natural protein, S. cerevisiae)
chain: MNVTPLDELQWKSPEWIQVFGLRTENVLDYFAESPFFDKTSNNQVIKMQRQFSQLNDPNAAVNMTQNIMTLPDGKNGNLEEEFAYVDPARRQILFKYPMYMQLEEELMKLDGTEYVLSSVREPDFWVIRKQRRTNNSGVGSAKGPEIIPLQDYYIIGANIYQSPTIFKIVQSRLMSTSYHLNSTLESLYDLIEFQPSQGVHYKVPTDTSTTATAATNGNNAGGGSNKSSVRPTGGANMATVPSTTNVNMTVNTMGTGGQTIDNGTGRTGNGNMGITTEMLDKLMVTSIRSTPNYI
notes: Med6, Mediator head module subunit, S. cerevisiae; Stood in the assay as a subunit of cMed
Take B1: the binding result is reported as “binds”.

B2: Med4 (natural protein, S. cerevisiae)
chain: MSVQDTKAVEFSMGHIRSSSVSLVAEATSNTNSEDKLSKVQLYEDLCRYEDTLSKLVESVDRFKPNLDIAKDLIRTDEALFENVKLLAEYDNIYRNLQKIDKDSEELDSKTRKILEILNECHDELKALPMLEQVEFEKNTILQQRSKINSTELLDYATKLSKFTKIPPTFDKGAVGPNNFIWPAEDALRRGMLAMASLHSKELTRIPGEEVEETEVPTVPPSQSEEQKGQMAKKEGTPKTDSFIFDGTAKEVGDEADNTKDKEKEENNDDALDLDLDLFDPDDF
notes: Med4, Mediator middle module subunit, S. cerevisiae; Stood in the assay as a subunit of cMed
As to B2, the binding result was “binds”.

B3: Med7 (natural protein, S. cerevisiae, UniProt Q08278 1-222, looked up)
chain: MSNDPGNEVSSLYPPPPPYVKFFTQSNLEKLPKYKEKKAASAKQTAPNNSNGGSEEEITCALDYLIPPPMPKNQQYRAFGSIWQVKDQLPDLESMGLTQLYKKSTENESTNYQYKIQELRKLLKSLLLNYLELIGVLSINPDMYERKVENIRTILVNIHHLLNEYRPHQSRESLIMLLEEQLEYKRGEIREIEQVCKQVHDKLTSIQDTLRTGSQSPPSSSQ
notes: Med7, Mediator middle module subunit, S. cerevisiae; Stood in the assay as a subunit of cMed
For the molecule B3, the binding result is on record as “binds”.

B4: Med21 (natural protein, S. cerevisiae)
chain: MTDRLTQLQICLDQMTEQFCATLNYIDKNHGFERLTVNEPQMSDKHATVVPPEEFSNTIDELSTDIILKTRQINKLIDSLPGVDVSAEEQLRKIDMLQKKLVEVEDEKIEAIKKKEKLLRHVDSLIEDFVDGIANSKKST
notes: Med21, Mediator subunit (hook domain), S. cerevisiae; Stood in the assay as a subunit of cMed
As to B4, the binding result was “binds”.

B5: Med8 (natural protein, S. cerevisiae)
chain: MSQSTASLVPEGNQGSLQEDVSFDFNGVPGQALDAVRMRLAQLTHSLRRIRDEMSKAELPQWYTLQSQLNVTLSQLVSVTSTLQHFQETLDSTVVYPLPKFPTTSHESLVTTLLRKKNIPEVDEWMKYVRETSGVTTALLKDEEIEKLLQQDREITNWARTTFRNEYGKHDFKNEESLSEEHASLLVRDSKPSKPFNVDDVLKFTFTGEKPIITGSTSTSSSN
notes: Med8, Mediator head module subunit, S. cerevisiae; Stood in the assay as a subunit of cMed
In the case of B5, the binding result is recorded as “binds”.

B6: Med17 (natural protein, S. cerevisiae)
chain: MTTEDPDSNHLSSETGIKLALDPNLITLALSSNPNSSLHSPTSDEPVPESAGKADTSIRLEGDELENKTKKDNDKNLKFLKNKDSLVSNPHEIYGSMPLEQLIPIILRQRGPGFKFVDLNEKELQNEIKQLGSDSSDGHNSEKKDTDGADENVQIGEDFMEVDYEDKDNPVDSRNETDHKTNENGETDDNIETVMTQEQFVKRRRDMLEHINLAMNESSLALEFVSLLLSSVKESTGMSSMSPFLRKVVKPSSLNSDKIPYVAPTKKEYIELDILNKGWKLQSLNESKDLLRASFNKLSSILQNEHDYWNKIMQSISNKDVIFKIRDRTSGQKLLAIKYGYEDSGSTYKHDRGIANIRNNIESQNLDLIPHSSSVFKGTDFVHSVKKFLRVRIFTKIESEDDYILSGESVMDRDSESEEAETKDIRKQIQLLKKIIFEKELMYQIKKECALLISYGVSIENENKVIIELPNEKFEIELLSLDDDSIVNHEQDLPKINDKRANLMLVMLRLLLVVIFKKTLRSRISSPHGLINLNVDDDILIIRPILGKVRFANYKLLLKKIIKDYVLDIVPGSSITETEVEREQPQENKNIDDENITKLNKEIRAFDKLLNIPRRELKINLPLTEHKSPNLSLMLESPNYCNALIHIKFSAGTEANAVSFDTTFSDFKEVEDFLHFIVAEYIQQKKV
notes: Med17, Mediator head module subunit, S. cerevisiae; Stood in the assay as a subunit of cMed
Regarding B6, the binding result is on record as “binds”.

B7: Med10 (natural protein, S. cerevisiae)
chain: MNGNSTNNEQLQQELATTQDQVASIIESFVELGVSIYDFPGTPEATKGMITNLQRNVDRLYKLNVRSNDPQSSLSKVDIPLEVVQYIEDGRNPDIYTREFVEAIRRSNQYQRGKMHGLKQLRDSLADKIVDEFPELKEPVEDIIKRTSPIDNVSNTH
notes: Med10, Mediator subunit (hook domain), S. cerevisiae; Stood in the assay as a subunit of cMed
With B7, the binding result is recorded as “binds”.
